Experiments:
[1] = target: T1, lid-truncated BiP^T229A-V461F-AMP (residues 27-549) (Chinese hamster, UniProt G3I8R9 27-549, T229A | V461F, AMP covalently attached to Thr518 (Thr518-AMP)); experiment: crystal structure; heterodimer of FICD^L258D-H363A and lid-truncated BiP-AMP copurified by SEC in TNKMT buffer (mixed 1.5:1 with 250 uM ATP, 50 mM KCl, 2 mM MgCl2); sitting drop at 25 °C; state 1: 0.1 M MES pH 6.5, 10% PEG 4000, 0.2 M NaCl; state 2: 0.1 M Tris pH 8.0, 25% PEG 400; settings: both partners purified
T1 construct: BiP, Chinese hamster, residues 27-549 (all of the SBD-alpha lid removed but helix A); in the expressed range hamster and human BiP are identical; also called lid-truncated BiP-AMP; AMPylated BiP; source: E. coli, purified (Ni-NTA, on-bead Ulp1 cleavage, anion exchange, gel filtration); AMPylated in vitro with GST-TEV-FICD^E234G; not shown: His6-Smt3, N-terminal, cleaved

[2] = target: T2, AMPylated biotinylated-AviTag-haBiP^T229A-V461F (Chinese hamster, UniProt G3I8R9 27-635, T229A | V461F, AMP covalently attached to Thr518; biotin on the N-terminal Avi-tag); experiment: BLI; biotinylated Avi-tagged BiP (AMPylated or unmodified) on streptavidin biosensors, activated in 2 mM ATP; apo FICD variants (all H363A) as analytes at 50 nM unless otherwise specified; HKM with 0.05% Triton X-100, 30 °C; second dissociation step with 2 mM ATP; settings: both partners purified
T2 construct: GS linker between the avi-tag and BiP; BiP, Chinese hamster, residues 27-635; Immobilised BLI ligand; also called BiP-AMP; immobilised AMPylated BiP; source: E. coli, purified; AMPylated in vitro, biotinylated in vitro, made apo, then loaded with 2 mM ATP on the sensor; not shown: His6-Smt3, N-terminal, cleaved; Avi-tag (biotinylated), N-terminal, kept

[3] = target: T3, biotinylated-AviTag-haBiP^T229A-V461F, unmodified, ATP-bound (Chinese hamster, UniProt G3I8R9 27-635, T229A | V461F, biotin on the N-terminal Avi-tag); experiment: as above; settings: both partners purified
T3 construct: GS linker between the avi-tag and BiP; BiP, Chinese hamster, residues 27-635; Immobilised BLI ligand; The in vitro AMPylation assay used untagged BiP^T229A-V461F (UK2521); also called BiP:ATP; unmodified BiP; source: E. coli, purified; biotinylated in vitro, made apo, then loaded with 2 mM ATP on the sensor; not shown: His6-Smt3, N-terminal, cleaved; Avi-tag (biotinylated), N-terminal, kept

[4] = target: T4, BiP^T229A-V461F-AMP (residues 27-635) (Chinese hamster, UniProt G3I8R9 27-635, T229A | V461F, AMP covalently attached to Thr518); experiment: contrast variation small angle neutron scattering (SANS); complexes of partially deuterated and non-deuterated dimeric FICD^H363A and full-length BiP-AMP copurified by SEC (1.25:1 BiP-AMP:FICD, 250 uM ATP) into TNKMT(0.2) buffers of varying D2O content; 4.3-5.5 mg/ml, 12 °C; settings: both partners purified
T4 construct: BiP, Chinese hamster, residues 27-635 ('full-length': complete structured region; lacks the acidic N-terminal region and the C-terminal region with KDEL); The deAMPylation assays used BiP^T229A-V461F (UK2521) AMPylated in vitro, with a trace of AMP(FAM)-labelled probe; also called full-length BiP-AMP; full-length AMPylated BiP; source: E. coli, purified; AMPylated in vitro with …

[5] = target: the molecule itself; experiment: as above

T2 sequence (G3I8R9 other isoform, or with tags, fused parts or gaps T229A | V461F | T229A | V461F | T229A V461F T229A V461F): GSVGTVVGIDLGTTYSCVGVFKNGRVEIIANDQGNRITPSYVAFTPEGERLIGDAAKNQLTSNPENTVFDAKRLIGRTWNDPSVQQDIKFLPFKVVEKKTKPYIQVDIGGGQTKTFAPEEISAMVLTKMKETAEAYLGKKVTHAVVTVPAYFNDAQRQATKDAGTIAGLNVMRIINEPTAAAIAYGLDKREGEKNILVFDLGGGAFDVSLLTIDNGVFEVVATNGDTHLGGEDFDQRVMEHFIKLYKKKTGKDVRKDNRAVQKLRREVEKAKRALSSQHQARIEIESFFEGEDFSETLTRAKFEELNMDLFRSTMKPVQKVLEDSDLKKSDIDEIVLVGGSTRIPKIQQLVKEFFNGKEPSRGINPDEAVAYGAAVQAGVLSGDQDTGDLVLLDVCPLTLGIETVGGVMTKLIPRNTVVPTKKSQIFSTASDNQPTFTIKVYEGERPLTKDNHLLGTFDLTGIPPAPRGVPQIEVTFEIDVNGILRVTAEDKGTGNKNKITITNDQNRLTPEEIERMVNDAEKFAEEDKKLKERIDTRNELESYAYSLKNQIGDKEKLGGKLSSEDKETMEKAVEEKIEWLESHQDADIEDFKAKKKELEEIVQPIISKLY
T3 sequence (G3I8R9 other isoform, or with tags, fused parts or gaps T229A | V461F | T229A | V461F | T229A V461F T229A V461F): as above
T1 sequence (G3I8R9 27-549 T229A/V461F): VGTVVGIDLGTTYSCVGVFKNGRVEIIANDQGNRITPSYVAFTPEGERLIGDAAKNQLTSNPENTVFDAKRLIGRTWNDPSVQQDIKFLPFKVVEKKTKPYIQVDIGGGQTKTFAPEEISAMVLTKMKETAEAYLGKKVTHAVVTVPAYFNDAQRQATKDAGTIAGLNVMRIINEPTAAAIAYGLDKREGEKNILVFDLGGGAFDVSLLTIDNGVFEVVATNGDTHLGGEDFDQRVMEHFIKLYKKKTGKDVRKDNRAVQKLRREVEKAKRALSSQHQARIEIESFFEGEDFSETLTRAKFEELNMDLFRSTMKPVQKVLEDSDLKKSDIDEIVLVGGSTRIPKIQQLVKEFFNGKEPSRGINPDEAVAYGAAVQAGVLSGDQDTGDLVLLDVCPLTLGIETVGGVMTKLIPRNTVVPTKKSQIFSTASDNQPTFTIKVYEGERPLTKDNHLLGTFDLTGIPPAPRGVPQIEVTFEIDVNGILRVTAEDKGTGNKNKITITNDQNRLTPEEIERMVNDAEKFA
T4 sequence (G3I8R9 27-635 T229A/V461F): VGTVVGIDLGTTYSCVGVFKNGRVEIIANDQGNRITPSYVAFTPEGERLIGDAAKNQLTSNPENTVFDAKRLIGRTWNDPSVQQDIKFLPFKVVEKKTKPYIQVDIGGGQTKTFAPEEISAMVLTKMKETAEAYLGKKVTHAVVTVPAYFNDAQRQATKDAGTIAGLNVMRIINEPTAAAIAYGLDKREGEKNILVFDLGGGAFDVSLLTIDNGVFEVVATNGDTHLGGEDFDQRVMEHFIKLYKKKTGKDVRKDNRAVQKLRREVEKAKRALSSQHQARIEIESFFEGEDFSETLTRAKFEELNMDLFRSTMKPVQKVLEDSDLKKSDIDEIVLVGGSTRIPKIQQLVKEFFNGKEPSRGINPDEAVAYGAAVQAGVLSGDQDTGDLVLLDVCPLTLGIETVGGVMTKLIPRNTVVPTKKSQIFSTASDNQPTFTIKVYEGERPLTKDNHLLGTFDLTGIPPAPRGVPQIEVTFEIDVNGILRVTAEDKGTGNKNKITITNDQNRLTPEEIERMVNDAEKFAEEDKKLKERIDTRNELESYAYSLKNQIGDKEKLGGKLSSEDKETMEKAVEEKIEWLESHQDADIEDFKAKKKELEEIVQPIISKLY

binding result [1] | binding result [2] | binding result [3] | stoichiometry N [4] | Binder | binding result [5]
binds | binds | binds |  | FICD^L258D-H363A (residues 104-445) (enzyme, human, UniProt Q9BVA6 104-445, looked up, FICD, human, residues 104-445 (only the predicted structured regions were expressed); Used in the crystal structures and as BLI analyte; also called monomeric FICD^L258D-H363A; monomeric FICD; source: E. coli (T7 Express lysY/Iq or M15), purified (Ni-NTA, on-bead Ulp1 cleavage, anion exchange, gel filtration); not shown: His6-Smt3, N-terminal, cleaved) LEARAALNQALEMKRQGKREKAQKLFMHALKMDPDFVDALTEFGIFSEEDKDIIQADYLYTRALTISPYHEKALVNRDRTLPLVEEIDQRYFSIIDSKVKKVMSIPKGNSALRRVMEETYYHHIYHTVAIEGNTLTLSEIRHILETRYAVPGKSDEEQNEVIGMHAAMKYINTTLVSRIGSVTISDVLEIHRRVLGYVDPVEAGRFRTTQVLVGHHIPPHPQDVEKQMQEFVQWLNSEEAMNLHPVEFAALAHYKLVYIAPFIDGNGRTSRLLMNLILMQAGYPPITIRKEQRSDYYHVLEAANEGDVRPFIRFIAKCTETTLDTLLFATTEYSVALPEAQP | 
 | binds |  |  | TPR domain oxidised dimeric FICD^D160C-T183C-H363A-C421S (enzyme, human, UniProt Q9BVA6 104-445, looked up, intramolecular disulphide bond between Cys160 and Cys183 (TPRox), FICD, human, residues 104-445, FICD^D160C-T183C-C421S derivative of FICD^H363A; also called TPRox (dimeric); FICD(TPRox); source: E. coli, purified; oxidised with CuSO4 and 1,10-phenanthroline, further anion exchange and gel filtration; not shown: His6-Smt3, N-terminal, cleaved) LEARAALNQALEMKRQGKREKAQKLFMHALKMDPDFVDALTEFGIFSEEDKDIIQACYLYTRALTISPYHEKALVNRDRCLPLVEEIDQRYFSIIDSKVKKVMSIPKGNSALRRVMEETYYHHIYHTVAIEGNTLTLSEIRHILETRYAVPGKSLEEQNEVIGMHAAMKYINTTLVSRIGSVTISDVLEIHRRVLGYVDPVEAGRFRTTQVLVGHHIPPHPQDVEKQMQEFVQWLNSEEAMNLHPVEFAALAHYKLVYIAPFIDGNGRTSRLLMNLILMQAGYPPITIRKEQRSDYYHVLEAANEGDVRPFIRFIAKSTETTLDTLLFATTEYSVALPEAQP | 
 |  |  | 1 FICD per BiP-AMP (2:2) | FICD^H363A (residues 104-445) (enzyme, human, UniProt Q9BVA6 104-445, looked up, FICD, human, residues 104-445; Used non-deuterated and partially deuterated in SANS, and as BLI analyte; also called dimeric FICD^H363A; dimeric FICD; source: E. coli, purified (Ni-NTA, on-bead Ulp1 cleavage, anion exchange, gel filtration); matchout-deuterated form from E. coli BL21 Star (DE3) in 85% deuterated medium, purified; not shown: His6-Smt3, N-terminal, cleaved) LEARAALNQALEMKRQGKREKAQKLFMHALKMDPDFVDALTEFGIFSEEDKDIIQADYLYTRALTISPYHEKALVNRDRTLPLVEEIDQRYFSIIDSKVKKVMSIPKGNSALRRVMEETYYHHIYHTVAIEGNTLTLSEIRHILETRYAVPGKSLEEQNEVIGMHAAMKYINTTLVSRIGSVTISDVLEIHRRVLGYVDPVEAGRFRTTQVLVGHHIPPHPQDVEKQMQEFVQWLNSEEAMNLHPVEFAALAHYKLVYIAPFIDGNGRTSRLLMNLILMQAGYPPITIRKEQRSDYYHVLEAANEGDVRPFIRFIAKCTETTLDTLLFATTEYSVALPEAQP | binds
 | binds | binds |  | TPR domain oxidised monomeric FICD^D160C-T183C-L258D-H363A-C421S (enzyme, human, UniProt Q9BVA6 104-445, looked up, intramolecular disulphide bond between Cys160 and Cys183 (TPRox), FICD, human, residues 104-445, FICD^D160C-T183C-C421S derivative of FICD^L258D-H363A; also called TPRox (monomeric); FICD(TPRox); source: E. coli, purified; oxidised with CuSO4 and 1,10-phenanthroline, further anion exchange and gel filtration; not shown: His6-Smt3, N-terminal, cleaved) LEARAALNQALEMKRQGKREKAQKLFMHALKMDPDFVDALTEFGIFSEEDKDIIQACYLYTRALTISPYHEKALVNRDRCLPLVEEIDQRYFSIIDSKVKKVMSIPKGNSALRRVMEETYYHHIYHTVAIEGNTLTLSEIRHILETRYAVPGKSDEEQNEVIGMHAAMKYINTTLVSRIGSVTISDVLEIHRRVLGYVDPVEAGRFRTTQVLVGHHIPPHPQDVEKQMQEFVQWLNSEEAMNLHPVEFAALAHYKLVYIAPFIDGNGRTSRLLMNLILMQAGYPPITIRKEQRSDYYHVLEAANEGDVRPFIRFIAKSTETTLDTLLFATTEYSVALPEAQP | 
